Measurements taken from IntAct's records for PubMed 19081061.

B1: Pyruvate dehydrogenase E1 component subunit alpha, somatic form, mitochondrial (Homo sapiens), P08559-1 (parent)
chain: MRKMLAAVSRVLSGASQKPASRVLVASRNFANDATFEIKKCDLHRLEEGPPVTTVLTREDGLKYYRMMQTVRRMELKADQLYKQKIIRGFCHLCDGQEACCVGLEAGINPTDHLITAYRAHGFTFTRGLSVREILAELTGRKGGCAKGKGGSMHMYAKNFYGGNGIVGAQVPLGAGIALACKYNGKDEVCLTLYGDGAANQGQIFEAYNMAALWKLPCIFICENNRYGMGTSVERAAASTDYYKRGDFIPGLRVDGMDILCVREATRFAAAYCRSGKGPILMELQTYRYHGHSMSDPGVSYRTREEIQEVRSKSDPIMLLKDRMVNSNLASVEELKEIDVEVRKEIEDAAQFATADPEPPLEELGYHIYSSDPPFEVRGANQWIKFKSVS
partner: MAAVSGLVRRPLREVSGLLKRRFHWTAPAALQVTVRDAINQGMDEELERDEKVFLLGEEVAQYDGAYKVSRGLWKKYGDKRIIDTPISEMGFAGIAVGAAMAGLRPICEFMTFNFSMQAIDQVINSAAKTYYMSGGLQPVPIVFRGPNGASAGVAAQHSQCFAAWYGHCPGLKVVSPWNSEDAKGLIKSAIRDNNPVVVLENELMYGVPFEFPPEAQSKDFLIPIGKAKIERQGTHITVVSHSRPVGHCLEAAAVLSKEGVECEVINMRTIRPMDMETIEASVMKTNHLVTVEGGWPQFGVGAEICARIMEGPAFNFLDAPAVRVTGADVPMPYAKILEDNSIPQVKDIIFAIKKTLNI

Variants of: B1
Conditions: with PDHB

| effect of a mutation on the interaction | Variant |
| --- | --- |
| with no effect | MRKMLAAVSRVLSGASQKPASRVLVASRNFANDATFEIKKCDLHRLEEGPPVTTVLTREDGLKYYRMMQTVRRMELKADQLYKQKIIRGFCHLCDGQEACCVGLEAGINPTDHLITAFRAHGFTFTRGLSVREILAELTGRKGGCAKGKGGSMHMYAKNFYGGNGIVGAQVPLGAGIALACKYNGKDEVCLTLYGDGAANQGQIFEAYNMAALWKLPCIFICENNRYGMGTSVERAAASTDYYKRGDFIPGLRVDGMDILCVREATRFAAAYCRSGKGPILMELQTYRYHGHSMSDPGVSYRTREEIQEVRSKSDPIMLLKDRMVNSNLASVEELKEIDVEVRKEIEDAAQFATADPEPPLEELGYHIYSSDPPFEVRGANQWIKFKSVS [Y118F] |
| with no effect | MRKMLAAVSRVLSGASQKPASRVLVASRNFANDATFEIKKCDLHRLEEGPPVTTVLTREDGLKYYRMMQTVRRMELKADQLYKQKIIRGFCHLCDGQEACCVGLEAGINPTDHLITAYRAHGFTFTRGLSVREILAELTGRKGGCAKGKGGSMHMYAKNFYGGNGIVGAQVPLGAGIALACKYNGKDEVCLTLYGDGAANQGQIFEAYNMAALWKLPCIFICENNRYGMGTAVERAAASTDYYKRGDFIPGLRVDGMDILCVREATRFAAAYCRSGKGPILMELQTYRYHGHSMSDPGVAYRTREEIQEVRSKSDPIMLLKDRMVNSNLASVEELKEIDVEVRKEIEDAAQFATADPEPPLEELGYHIYSSDPPFEVRGANQWIKFKSVS [S232A;S300A] |
